Results as given in patent EP2467164A2 (dated 2012).
Blank lines part the entries; values can stand above or below the binder they belong to.

What was measured:
[1] = target: T1, ErbB3 (human, UniProt P21860 20-643, limits assumed); assay: KinExA
T1 construct: also called ErbB3 domain; HER3

[2] = target: T2, recombinant ErbB3 (human, UniProt P21860 20-643); assay: surface plasmon resonance, antibody as ligand, recombinant ErbB3 as analyte
T2 construct: also called HER3

[3] = target: T3, ErbB3 expressed on MALME-3M melanoma cells (human, UniProt P21860 20-1342); assay: cell binding assay on MALME-3M cells, flow cytometry, one-site model
T3 construct: Endogenous ErbB3 of the MALME-3M cell line; also called ErbB3 on MALME-3M cells

[4] = target: ErbB3 on AdrR cells (human, UniProt P21860 20-1342); assay: cell-based or functional assay
[5] = target: T4, ErbB1 on AdrR cells (UniProt P00533 25-1210, limits assumed); assay: flow cytometry, biotinylated BTC (Figure 15)
T4 construct: whole, on cells; also called EGFR; ErbBl

Kd [1]: 0.769 nM
koff [1]: 0.00011 s⁻¹
kon [1]: 143000 M⁻¹ s⁻¹
Kd [2]: ~4 nM
Kd [3]: ~4 nM
BTC-induced ErbB3 phosphorylation in AdrR cells (IC50) [4]: 5.9 nM
HRG-induced ErbB3 phosphorylation in AdrR cells (IC50) [4]: 2.4 nM
B1: Ab #6 (antibody, V domains shown)
VH: EVQLLESGGGLVQPGGSLRLSCAASGFTFSHYVMAWVRQAPGKGLEWVSSISSSGGWTLYADSVKGRFTISRDNSKNTLYLQMNSLRAEDTAVYYCTRGLKMATIFDYWGQGTLVTVSS
VL: QSALTQPASVSGSPGQSITISCTGTSSDVGSYNVVSWYQQHPGKAPKLIIYEVSQRPSGVSNRFSGSKSGNTASLTISGLQTEDEADYYCCSYAGSSIFVIFGGGTKVTVL
notes: also called MM-121; anti-ErbB3 antibody Ab #6

binding result [5]: binds
B2: betacellulin (ligand, UniProt P35070 32-111, looked up)
chain: DGNSTRSPETNGLLCGDPEENCAATTTQSKRKGHFSRCPKQYKHYCIKGRCRFVVAEQTPSCVCDEGYIGARCERVDLFY
modifications: biotinylated in the FACS assay of Example 7 (site not stated)
notes: also called BTC; biotinylated BTC

Kd [2]: ~8 nM
Kd [3]: ~1.3 nM
B3: Ab #3 (antibody, V domains shown)
VH: EVQLLESGGGLVQPGGSLRLSCAASGFTFSAYNMRWVRQAPGKGLEWVSVIYPSGGATRYADSVKGRFTISRDNSKNTLYLQMNSLRAEDTAVYYCARGYYYYGMDVWGQGTLVTVSS
VL: QSVLTQPPSASGTPGQRVTISCSGSDSNIGRNYIYWYQQFPGTAPKLLIYRNNQRPSGVPDRISGSKSGTSASLAISGLRSEDEAEYHCGTWDDSLSGPVFGGGTKLTVL
